The record followed here is the supplement of paper PMC10567573.

First the molecules themselves.
B1: RAB11B (parent)
chain: AVPTDEARAFAEKNNLSFIETSAL
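Also: lentivirally expressed fusions sorted by FACS into six bins by GFP to DsRed ratio, PSI derived from sequencing read proportions per bin multiplied by bin number.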

In the data set the parent is B1. Nature of the data set: protein stability index of a GFP-peptide fusion (GPS, HEK-293T) (PSI 1-6); higher = more stable. Conditions: c terminus: a fixed tail appended.
In the case of AVPTDEARAFAEKNNLSFIETSAK, the protein stability index was found to be 4.15.

As to AVPTDEARAFAEKNNLSFIETSAG, the protein stability index was found to be 4.49.

Turning to AVPTDEARAFAEKNNLSFIETSAM, the protein stability index was 3.13.

Consider AVPTDEARAFAEKNNLSFIETSAN, for which the protein stability index is 4.87.

Regarding AVPTDEARAFAEKNNLSFIETSAF, the protein stability index was found to be 2.43.

With AVPTDEARAFAEKNNLSFIETSAY, the protein stability index is 3.21.

Regarding AVPTDEARAFAEKNNLSEIETSAL, the protein stability index amounted to 5.3.

Turning to AVPTDEARAFAEKNNLSLIETSAL, the protein stability index was determined as 3.53.

Consider AVPTDEARAFAEKNNLSPIETSAL, for which the protein stability index is 4.88.

Regarding AVPTDEARAFAEKNNLSWIETSAL, the protein stability index worked out at 3.67.

For the variant AVPTDEARAFAEKNNLSFIEDSAL, the protein stability index was determined as 4.39.

Regarding AVPTDEARAFAEKNNLSFIEMSAL, the protein stability index is 3.35.

Consider AVPTDEARAFAEKNNLSFIEYSAL, for which the protein stability index stood at 2.

For the variant AVPTDEARAFAEKNNLSFIEPSAL, the protein stability index is 2.35.

In the case of AVPTDEARAFAEKNNLSFIEASAL, the protein stability index came to 3.41.

In the case of AVPTDEARAFAEKNNLSFIELSAL, the protein stability index was 3.08.

For AVPTDEARAFAEKNNLSFIECSAL, the protein stability index was 2.85.

With AVPTDEARAFAEKNNLSFIEWSAL, the protein stability index stood at 2.76.

As to AVPTDEARAFAEKNNLSFIEKSAL, the protein stability index came to 3.65.

Turning to AVPTDEARAFAEKNNLIFIETSAL, the protein stability index came to 2.89.

For AVPTDEARAFAEKNNLHFIETSAL, the protein stability index is 3.07.

For AVPTDEARAFAEKNNLYFIETSAL, the protein stability index turned out to be 2.85.

Take AVPTDEARAFAEKNNLWFIETSAL: the protein stability index was found to be 2.64.

AVPTDEARAFAEKNNLEFIETSAL: the protein stability index came to 4.62.

Regarding AVPTDEARAFAEKNNLNFIETSAL, the protein stability index was 2.86.

AVPTDEARAFAEKNNLGFIETSAL: the protein stability index stood at 3.7.

As for AVPTDEHRAFAEKNNLSFIETSAL, the protein stability index was 2.23.

Consider AVPTDEGRAFAEKNNLSFIETSAL, for which the protein stability index was determined as 3.14.

On to AVPTDEPRAFAEKNNLSFIETSAL, for which the protein stability index came to 2.86.

Take AVPTDEMRAFAEKNNLSFIETSAL: the protein stability index came to 2.27.

Regarding AVPTDEERAFAEKNNLSFIETSAL, the protein stability index is 2.92.

For AVPTDEVRAFAEKNNLSFIETSAL, the protein stability index is 2.7.

AVPTDEQRAFAEKNNLSFIETSAL: the protein stability index was 3.46.

For the variant AVPTDEARAFAEKWNLSFIETSAL, the protein stability index is 2.83.

Take AVPTDEARAFAEKMNLSFIETSAL: the protein stability index worked out at 2.25.

Take AVPTDEARAFAEKVNLSFIETSAL: the protein stability index was determined as 2.18.

With AVPTDEARAFAEKRNLSFIETSAL, the protein stability index stood at 2.27.

AVPTDEARAFAEKSNLSFIETSAL: the protein stability index came to 2.84.

With AVPTDEARAFAEKKNLSFIETSAL, the protein stability index is 3.38.

For the variant AVPTDEARAFAEKFNLSFIETSAL, the protein stability index worked out at 2.25.

For the variant AVPTDEARAFAEKINLSFIETSAL, the protein stability index was 2.23.

As to AVPTDEARAFAEKNNLSFIETSSL, the protein stability index came to 3.38.

As for AVPTDEARAFAEKNNLSFIETSML, the protein stability index turned out to be 2.3.

On to AVPTDEARAFAEKNNLSFIETSGL, for which the protein stability index was determined as 3.96.

In the case of AVPTDEARAFAEKNNLSFIETSCL, the protein stability index came to 2.9.

Consider AVPTDEARAFAEKNNLSFIETSDL, for which the protein stability index stood at 4.11.

In the case of AVPTEEARAFAEKNNLSFIETSAL, the protein stability index was determined as 2.82.

With AVPTAEARAFAEKNNLSFIETSAL, the protein stability index is 2.31.

Consider AVPTFEARAFAEKNNLSFIETSAL, for which the protein stability index turned out to be 2.17.

Regarding AVPTMEARAFAEKNNLSFIETSAL, the protein stability index came to 2.07.

With AVPTKEARAFAEKNNLSFIETSAL, the protein stability index was determined as 1.41.

As to AVPTCEARAFAEKNNLSFIETSAL, the protein stability index is 2.82.

For the variant AVPTGEARAFAEKNNLSFIETSAL, the protein stability index was 2.31.

Regarding AVPTVEARAFAEKNNLSFIETSAL, the protein stability index worked out at 1.99.

As to AVPTLEARAFAEKNNLSFIETSAL, the protein stability index was 2.46.

For AVPTSEARAFAEKNNLSFIETSAL, the protein stability index amounted to 2.33.

For the variant AVPTNEARAFAEKNNLSFIETSAL, the protein stability index was determined as 1.92.

In the case of AVPTTEARAFAEKNNLSFIETSAL, the protein stability index stood at 2.13.

Regarding AVPTDEARAMAEKNNLSFIETSAL, the protein stability index was 2.9.

As for AVPTDEARARAEKNNLSFIETSAL, the protein stability index amounted to 2.74.

In the case of AVPTDEARATAEKNNLSFIETSAL, the protein stability index is 3.78.

As for AVPTDEARAPAEKNNLSFIETSAL, the protein stability index came to 2.73.

As for AVPTDEARAEAEKNNLSFIETSAL, the protein stability index is 4.11.

As for AVPTDEARAAAEKNNLSFIETSAL, the protein stability index amounted to 3.38.

Take AVPTDEARAWAEKNNLSFIETSAL: the protein stability index was found to be 2.34.

Take AVPTDEARAVAEKNNLSFIETSAL: the protein stability index is 3.41.

Regarding AVPTDEARAQAEKNNLSFIETSAL, the protein stability index turned out to be 3.45.

On to AVPTDEARAHAEKNNLSFIETSAL, for which the protein stability index amounted to 3.74.

Consider AVPTDEARAFAEKNNLSFIATSAL, for which the protein stability index came to 2.88.

For the variant AVPTDEARAFAEKNNLSFIDTSAL, the protein stability index was determined as 2.92.

For the variant AVPTDEARAFAEKNNLSFIYTSAL, the protein stability index came out at 2.31.

For AVPTDEARAFAEKNNLSFIRTSAL, the protein stability index stood at 3.02.

On to AVPTDEARAFAEKNNLSFILTSAL, for which the protein stability index was 2.15.

Consider AVPTDEARAFAEKNNLSFIITSAL, for which the protein stability index came out at 1.85.

For the variant WVPTDEARAFAEKNNLSFIETSAL, the protein stability index came to 2.26.

As to DVPTDEARAFAEKNNLSFIETSAL, the protein stability index is 2.95.

Turning to HVPTDEARAFAEKNNLSFIETSAL, the protein stability index was 2.9.

On to VVPTDEARAFAEKNNLSFIETSAL, for which the protein stability index is 2.62.

Turning to CVPTDEARAFAEKNNLSFIETSAL, the protein stability index was found to be 2.43.

Regarding QVPTDEARAFAEKNNLSFIETSAL, the protein stability index worked out at 2.63.

As for LVPTDEARAFAEKNNLSFIETSAL, the protein stability index was found to be 2.67.

With MVPTDEARAFAEKNNLSFIETSAL, the protein stability index was determined as 2.64.

In the case of RVPTDEARAFAEKNNLSFIETSAL, the protein stability index came out at 2.26.

On to IVPTDEARAFAEKNNLSFIETSAL, for which the protein stability index was found to be 2.07.

For SVPTDEARAFAEKNNLSFIETSAL, the protein stability index was determined as 2.65.

Consider TVPTDEARAFAEKNNLSFIETSAL, for which the protein stability index is 2.74.

As to AEPTDEARAFAEKNNLSFIETSAL, the protein stability index stood at 3.96.

AYPTDEARAFAEKNNLSFIETSAL: the protein stability index is 2.52.

ATPTDEARAFAEKNNLSFIETSAL: the protein stability index stood at 2.62.

For the variant AIPTDEARAFAEKNNLSFIETSAL, the protein stability index was 2.74.

For ACPTDEARAFAEKNNLSFIETSAL, the protein stability index is 3.02.

As to ASPTDEARAFAEKNNLSFIETSAL, the protein stability index was determined as 3.09.

For the variant ADPTDEARAFAEKNNLSFIETSAL, the protein stability index turned out to be 3.41.

Regarding AFPTDEARAFAEKNNLSFIETSAL, the protein stability index was determined as 2.64.
